Results reported in patent US20150197568A1 (AstraZeneca / MedImmune, published 2015).

Legend:
Mature human IL-6 = Mature human IL-6 (human, UniProt P05231 30-212); experiment: cell-based or functional assay
[1] = biological target: T1, HIS FLAG tagged human IL-6 (human, UniProt P05231 30-212); experiment: HTRF receptor-ligand competition; HIS FLAG human IL-6 vs biotinylated sIL-6R
T1 construct: In house; also called HIS FLAG IL-6; HIS/FLAG IL-6
Description: Unique scFvs were expressed again in bacteria and purified by affinity chromatography (as described by Bannister et al. Purified IgG samples of these clones were also prepared as described in section 1.3. The potencies of these samples were determined by competing a dilution series of the purified preparation against biotinylated sIL-6R for binding to HIS FLAG tagged human IL-6 (in house E. coli derived).
Purified scFv and IgG from positive clones identified from screening were tested in a HTRF® assay for inhibition of binding of HIS FLAG tagged human IL-6 to biotinylated IL-6R. 8 nM biotinylated human IL-6R was pre-incubated for 30 minutes at room temperature in the dark, with 8 nM streptavidin XL^{ent!}™. All dilutions were done in phosphate buffered saline (PBS) containing 0.4 M potassium fluoride and 0.1% BSA (assay buffer).

Human IL-11 = biological target: T2, Human IL-11 (human, UniProt P20809 22-199, limits assumed); experiment: DELFIA epitope competition; protein titrated against biotinylated HIS FLAG IL-6 on immobilised CAN022D10 IgG
T2 sequence (looked up): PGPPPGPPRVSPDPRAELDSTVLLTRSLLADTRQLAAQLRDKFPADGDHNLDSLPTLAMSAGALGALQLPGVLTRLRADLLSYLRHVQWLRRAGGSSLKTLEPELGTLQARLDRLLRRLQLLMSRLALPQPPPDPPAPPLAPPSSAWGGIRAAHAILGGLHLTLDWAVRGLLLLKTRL
Description: (§1) Titrations of IL-6 species including cynomolgus (in house E. Coli derived), human HIS FLAG IL-6 (in house HEK-EBNA derived), rat and murine IL-6 (both R & D Systems) were tested in each assay to establish the species cross-reactivity of the antibodies. Details of the protocol are provided in the Materials and Methods section.
(§2) Purified IgG were adsorbed onto 96-well Maxisorp microtitre plates (Nunc) in PBS at a concentration which gave a significant signal when biotinylated human IL-6 was added at approximately its estimated Kd for that particular IgG. Excess IgG was washed away with PBS-Tween (0.1% v/v) and the wells were blocked with PBS-Marvel (3% w/v) for 1 h. […] These mixtures were then transferred onto the blocked IgG and allowed to equilibrate for 1.5 h. Unbound antigen was removed by washing with PBS-Tween (0.1% v/v), while the remaining biotinylated human IL-6 was detected by streptavidin-Europium3+ conjugate (DELFIA® detection, PerkinElmer). Time-resolved fluorescence was measured at 620 nm on an EnVision plate reader (PerkinElmer). Fluorescence data was converted to % specific binding (100% was determined from control wells containing biotinylated human IL-6 but no competitor, 0% was from wells containing biotinylated human IL-6 and a 100-fold excess of unbiotinylated human IL-6). Resultant data were analysed using Prism curve fitting software (Graphpad) to determine IC50 values according to Equation 3.

Rat IL-6 = biological target: T3, Rat IL-6 (rat, UniProt P20607 25-211); experiment: as above
T3 sequence (looked up): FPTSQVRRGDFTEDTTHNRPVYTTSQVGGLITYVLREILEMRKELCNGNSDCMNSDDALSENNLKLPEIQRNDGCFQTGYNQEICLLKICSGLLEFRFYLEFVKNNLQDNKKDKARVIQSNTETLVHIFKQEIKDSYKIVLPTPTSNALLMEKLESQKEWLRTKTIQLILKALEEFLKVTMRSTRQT
Description: as §1, §2

Human LIF = Human LIF (human, UniProt P15018 23-202); experiment: as above
Description: as §1, §2

Human Oncostatin M = biological target: T4, Human Oncostatin M (human, UniProt P13725 26-221); experiment: as above
T4 construct: also called OsM
T4 sequence (looked up): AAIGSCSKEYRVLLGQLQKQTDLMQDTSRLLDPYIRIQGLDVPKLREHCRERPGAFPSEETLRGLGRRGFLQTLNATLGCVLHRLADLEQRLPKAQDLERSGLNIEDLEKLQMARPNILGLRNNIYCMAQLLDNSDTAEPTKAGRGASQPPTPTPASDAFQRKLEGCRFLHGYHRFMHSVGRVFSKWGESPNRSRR
Description: as §1, §2

Human CNTF = biological target: T5, Human CNTF (human, UniProt P26441 2-200); experiment: as above
T5 construct: also called ciliary neurotrophic factor
T5 sequence (looked up): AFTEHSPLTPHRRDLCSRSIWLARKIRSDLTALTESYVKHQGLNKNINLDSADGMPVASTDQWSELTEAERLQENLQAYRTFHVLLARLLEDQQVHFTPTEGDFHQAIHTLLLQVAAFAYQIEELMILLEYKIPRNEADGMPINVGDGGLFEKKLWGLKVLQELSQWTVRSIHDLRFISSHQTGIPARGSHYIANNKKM
Description: as §1, §2

Murine IL-6 = biological target: T6, Murine IL-6 (murine, UniProt P08505 25-211); experiment: as above
T6 construct: also called mouse IL-6
T6 sequence (looked up): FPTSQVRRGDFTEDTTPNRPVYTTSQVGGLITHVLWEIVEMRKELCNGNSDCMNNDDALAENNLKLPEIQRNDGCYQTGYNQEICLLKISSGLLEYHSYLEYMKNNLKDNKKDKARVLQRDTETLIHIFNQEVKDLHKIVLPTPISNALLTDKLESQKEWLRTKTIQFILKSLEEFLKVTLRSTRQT
Description: as §1, §2

Sequence of Human LIF (P15018 23-202 limits assumed): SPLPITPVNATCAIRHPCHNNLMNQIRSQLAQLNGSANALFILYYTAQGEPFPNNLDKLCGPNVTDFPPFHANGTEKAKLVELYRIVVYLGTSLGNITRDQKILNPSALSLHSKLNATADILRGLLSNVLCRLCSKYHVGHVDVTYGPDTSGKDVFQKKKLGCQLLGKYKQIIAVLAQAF

- IC50, IL-6 induced TF-1 cell proliferation (Mature human IL-6): 93 nM
- IC50, endogenous IL-6 induced VEGF release from human synovial fibroblasts (Mature human IL-6): 45 nM
- IC50 [1]: 0.31 nM
- binding result (Human IL-11): no binding
- binding result (Rat IL-6): no binding
- binding result (Human LIF): no binding
- binding result (Human Oncostatin M): no binding
- binding result (Human CNTF): no binding
- binding result (Murine IL-6): no binding
B1: CAN022D10 IgG (antibody, V domains shown)
VH: EVQLVQSGGGLIQPGGSLRLSCAASGFTISSNYMIWVRQAPGKGLEWVSDLYYYAGDTYYADSVKGRFTMSRDISKNTVYLQMNSLRAEDTGVYYCARWADDHYYYIDVWGRGTLVTVSS
VL: DIVMTQSPSTLSASVGDRVTITCRASQGISSWLAWYQQKPGRAPKVLIYKASTLESGVPSRFSGSGSGTDFTLTISSLQPEDFATYYCQQSYSTPWTFGQGTKLEIKR
notes: Biotinylated in the HTRF antibody-ligand assay; also called CAN22D10; parent IgG
